Measurements reported in patent US20200054723A1 (ALLAKOS, published 2020).
Residue numbers refer to the chain shown, from its start.

B1: RHE E-DKD (antibody, human IgG1, V domains shown)
VH: EVQLVESGGGLVQPGGSLRLSCAASGFSLTIYGAHWVRQAPGKGLEWVGVIWAGGSTNYNSALMSRFTISKDNSKNTVYLQMNSLRAEDTAVYYCARDGSSPYYYSMDYWGQGTTVTVSS
VL: EIVLTQSPATLSLSPGERATLSCSATSSVSYMHWFQQKPGQAPRLWIYSTSNLASGIPARFSGSGSGTDFTLTISSLEPEDFAVYYCQQRSSYPFTFGPGTKLDIK
notes: human IgG1/kappa
B2: RHE E-DKE (antibody, human IgG1, V domains shown)
VH: B1 VH
VL: B1 VL with W46L, I57V
notes: human IgG1/kappa
B3: RHE E-DKF (antibody, human IgG1, V domains shown)
VH: B1 VH
VL: B1 VL with W46L, F70Y
notes: human IgG1/kappa
B4: RHE E-DKFmut (antibody, human IgG1, V domains shown)
VH: B1 VH
VL: B1 VL with W46L, F70Y, F95Y
notes: human IgG1/kappa
B5: RHE S-G KFmut (antibody, V domains shown)
VH: B1 VH with S106G, D108E
VL: B1 VL with W46L, F70Y, F95Y
notes: human IgG1/kappa
B6: RHE S-GKA (antibody, human IgG1, V domains shown)
VH: B1 VH with S106G, D108E
VL: B1 VL with W46L
notes: human IgG1/kappa
B7: RHE S-GKB (antibody, human IgG1, V domains shown)
VH: B1 VH with S106G, D108E
VL: B1 VL with V3I, I57V, F70Y
notes: human IgG1/kappa
B8: RHE S-GKC (antibody, human IgG1, V domains shown)
VH: B1 VH with S106G, D108E
VL: B1 VL with V3I, W46L
notes: human IgG1/kappa
B9: RHE S-GKD (antibody, human IgG1, V domains shown)
VH: B1 VH with S106G, D108E
VL: B1 VL
notes: human IgG1/kappa
B10: RHE S-GKF (antibody, human IgG1, V domains shown)
VH: B1 VH with S106G, D108E
VL: B1 VL with W46L, F70Y
notes: human IgG1/kappa
B11: RHE S-GKG (antibody, human IgG1, V domains shown)
VH: B1 VH with S106G, D108E
VL: B1 VL with F35Y, W46L
notes: human IgG1/kappa
B12: RHE Triple-KA (antibody, human IgG1, V domains shown)
VH: B1 VH with S106G, Y109V
VL: B1 VL with W46L
notes: human IgG1/kappa
B13: RHE Triple-KD (antibody, human IgG1, V domains shown)
VH: B1 VH with S106G, Y109V
VL: B1 VL
notes: human IgG1/kappa
B14: RHE Triple-KE (antibody, human IgG1, V domains shown)
VH: B1 VH with S106G, Y109V
VL: B1 VL with W46L, I57V
notes: human IgG1/kappa
B15: RHE Y-VKA (antibody, human IgG1, V domains shown)
VH: B1 VH with D108E, Y109V
VL: B1 VL with W46L
notes: human IgG1/kappa
B16: RHE Y-VKB (antibody, human IgG1, V domains shown)
VH: B1 VH with D108E, Y109V
VL: B1 VL with V3I, I57V, F70Y
notes: human IgG1/kappa
B17: RHE Y-VKC (antibody, human IgG1, V domains shown)
VH: B1 VH with D108E, Y109V
VL: B1 VL with V3I, W46L
notes: human IgG1/kappa
B18: RHE Y-VKD (antibody, human IgG1, V domains shown)
VH: B1 VH with D108E, Y109V
VL: B1 VL
notes: human IgG1/kappa

target: T1, recombinant human Siglec-8 extracellular domain (ECD) (human, UniProt Q9NYZ4 17-363); assay: ELISA, coated Siglec-8 ECD
T1 construct: extracellular domain; also called Siglec-8 ECD; full Siglec-8 ECD
T1 sequence (Q9NYZ4 17-363): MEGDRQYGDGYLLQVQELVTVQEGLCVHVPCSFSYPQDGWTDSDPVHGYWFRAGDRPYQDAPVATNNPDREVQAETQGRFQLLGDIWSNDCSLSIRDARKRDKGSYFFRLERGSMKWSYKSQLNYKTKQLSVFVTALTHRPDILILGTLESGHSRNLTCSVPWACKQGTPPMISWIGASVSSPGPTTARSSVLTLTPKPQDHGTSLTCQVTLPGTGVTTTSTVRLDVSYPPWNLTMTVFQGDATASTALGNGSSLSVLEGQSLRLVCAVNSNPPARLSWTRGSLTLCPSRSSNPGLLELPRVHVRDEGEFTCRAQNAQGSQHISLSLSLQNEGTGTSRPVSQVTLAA

B1 and B2 are within 1.5-fold of each other in EC50: 0.316 nM for the first, 0.364 nM for the second.

First: B3
Second: B4
The EC50 of the first is 3.1-fold lower: 0.445 nM for the first, 1.4 nM for the second. The first is the more potent here.

Compared with B5, B6 is 4.1-fold lower in EC50: 207 nM for the first, 50.6 nM for the second.

Going from B7 to B8, the EC50 falls from 627 nM to 173 nM (3.6-fold). The second is the more potent here.

Compared with B9, B10 is 2.6-fold lower in EC50: 8.65 nM for the first, 3.28 nM for the second.

First: B11
Second: B12
The EC50 of the first is 1.8-fold higher: 33.5 nM for the first, 18.6 nM for the second.

Compared with B13, B14 is 2.6-fold higher in EC50: 13.2 nM for the first, 34.1 nM for the second. The first is the more potent here.

Going from B15 to B16, the EC50 rises from 0.088 nM to 0.306 nM (3.5-fold).

B17 and B18 are within 1.5-fold of each other in EC50: 0.215 nM for the first, 0.283 nM for the second.
